The values below come from US20200370085A1.

The assay concerns the target VEGF (UniProt P15692). In words: solution equilibrium titration (SET) ELISA, crude IVT product 1:400, monovalent fit.
Chain of UniProt P15692 (P15692 other isoform, or with tags, fused parts or gaps limits assumed): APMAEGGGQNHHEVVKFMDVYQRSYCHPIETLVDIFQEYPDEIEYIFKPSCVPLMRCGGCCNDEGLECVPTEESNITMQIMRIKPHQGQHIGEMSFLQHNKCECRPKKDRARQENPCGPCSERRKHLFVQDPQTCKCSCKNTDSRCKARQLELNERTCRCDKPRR

As for [H101Y] Avastin scFv, the dissociation constant Kd (as a rule, the constant that tells how readily two partners part at equilibrium) worked out at 11.1 pM.

Turning to [S105T] Avastin scFv, the equilibrium dissociation constant (Kd) turned out to be 8.99 pM.

Consider [N31H] Avastin scFv, for which the Kd worked out at 4.03 pM.
